# Target: T1, PRAME peptide on HLA-A*02:01 (human)
# T1 peptide: SLLQHLIGL
# Assay: multimer staining
row,Binder,binding result
1,"nwTCR-2316 (TCR, V domains shown) Valpha: TQLLEQSPQFLSIQEGENLTVYCNSSSVFSSLQWYRQEPGEGPVLLVTVVTGGEVKKLKRLTFQFGDARKDSSLHITAAQPGDTGLYLCAGVDNYGQNFVFGPGTRLSVLP Vbeta: DAGVIQSPRHEVTEMGQEVTLRCKPISGHNSLFWYRQTMMRGLELLIYFNNNVPIDDSGMPEDRFSAKMPNASFSTLKIQPSEPRDSAVYFCASSIAALGFGELFFGEGSRLTVL",recognises
2,"nwTCR-3271 (TCR, V domains shown) Valpha: DQQVKQNSPSLSVQEGRISILNCDYTNSMFDYFLWYKKYPAEGPTFLISISSIKDKNEDGRFTVFLNKSAKHLSLHIVPSQPGDSAVYFCAAKPDKLIFGTGTRLQVFP Vbeta: SAVISQKPSRDICQRGTSLTIQCQVDSQVTMMFWYRQQPGQSLTLIATANQGSEATYESGFVIDKFPISRPNLTFSTLTVSNMSPEDSSIYLCSVWGAGLAIYNEQFFGPGTRLTVL",recognises
3,"nwTCR-2915 (TCR, V domains shown) Valpha: GESVGLHLPTLSVQEGDNSIINCAYSNSASDYFIWYKQESGKGPQFIIDIRSNMDKRQGQRVTVLLNKTVKHLSLQIAATQPGDSAVYFCAESYGQKLLFARGTMLKVDL Vbeta: EAQVTQNPRYLITVTGKKLTVTCSQNMNHEYMSWYRQDPGLGLRQIYYSMNVEVTDKGDVPEGYKVSRKEKRNFPLILESPSPNQTSLYFCASSFWSAGELFFGEGSRLTVL",recognises
4,"nwTCR-2916 (TCR, V domains shown) Valpha: GQQLNQSPQSMFIQEGEDVSMNCTSSSIFNTWLWYKQDPGEGPVLLIALYKAGELTSNGRLTAQFGITRKDSFLNISASIPSDVGIYFCAGQDDGGSQGNLIFGKGTKLSVKP Vbeta: DSGVTQTPKHLITATGQRVTLRCSPRSGDLSVYWYQQSLDQGLQFLIQYYNGEERAKGNILERFSAQQFPDLHSELNLSSLELGDSALYFCASSPWTSGGDGELFFGEGSRLTVL",recognises
5,"nwTCR-2614 (TCR, V domains shown) Valpha: AQTVTQSQPEMSVQEAETVTLSCTYDTSENNYYLFWYKQPPSRQMILVIRQEAYKQQNATENRFSVNFQKAAKSFSLKISDSQLGDTAMYFCAFDNNARLMFGDGTQLVVKP Vbeta: GAVVSQHPSWVICKSGTSVKIECRSLDFQATTMFWYRQFPKQSLMLMATSNEGSKATYEQGVEKDKFLINHASLTLSTLTVTSAHPEDSSFYICSATRDSSYNEQFFGPGTRLTVL",recognises
6,"nwTCR-3028 (TCR, V domains shown) Valpha: SQQGEEDPQALSIQEGENATMNCSYKTSINNLQWYRQNSGRGLVHLILIRSNEREKHSGRLRVTLDTSKKSSSLLITASRAADTASYFCATDVKSSYKLIFGSGTRLLVRP Vbeta: AAGVIQSPRHLIKEKRETATLKCYPIPRHDTVYWYQQGPGQDPQFLISFYEKMQSDKGSIPDRFSAQQFSDYHSELNMSSLELGDSALYFCASSLGLLGNEQFFGPGTRLTVL",recognises
7,"nwTCR-2286 (TCR, V domains shown) Valpha: GQQLNQSPQSMFIQEGEDVSMNCTSSSIFNTWLWYKQDPGEGPVLLIALYKAGELTSNGRLTAQFGITRKDSFLNISASIPSDVGIYFCAGPEDDKIIFGKGTRLHILP Vbeta: DSGVTQTPKHLITATGQRVTLRCSPRSGDLSVYWYQQSLDQGLQFLIQYYNGEERAKGNILERFSAQQFPDLHSELNLSSLELGDSALYFCASSPWLQGGNEQFFGPGTRLTVL",recognises
8,"nwTCR-2418 (TCR, V domains shown) Valpha: DQQVKQNSPSLSVQEGRISILNCDYTNSMFDYFLWYKKYPAEGPTFLISISSIKDKNEDGRFTVFLNKSAKHLSLHIVPSQPGDSAVYFCAASGVRGQNFVFGPGTRLSVLP Vbeta: DSGVTQTPKHLITATGQRVTLRCSPRSGDLSVYWYQQSLDQGLQFLIQYYNGEERAKGNILERFSAQQFPDLHSELNLSSLELGDSALYFCASSPWLAGGREQYFGPGTRLTVT",recognises
9,"nwTCR-2718 (TCR, V domains shown) Valpha: GQQLNQSPQSMFIQEGEDVSMNCTSSSIFNTWLWYKQDPGEGPVLLIALYKAGELTSNGRLTAQFGITRKDSFLNISASIPSDVGIYFCAGFSQGGSEKLVFGKGTKLTVNP Vbeta: DSGVTQTPKHLITATGQRVTLRCSPRSGDLSVYWYQQSLDQGLQFLIQYYNGEERAKGNILERFSAQQFPDLHSELNLSSLELGDSALYFCASSPWTAGGNTIYFGEGSWLTVV",recognises
10,"nwTCR-2228 (TCR, V domains shown) Valpha: QKEVEQNSGPLSVPEGAIASLNCTYSDRGSQSFFWYRQYSGKSPELIMFIYSNGDKEDGRFTAQLNKASQYVSLLIRDSQPSDSATYLCAGHTGNQFYFGTGTSLTVIP Vbeta: EPEVTQTPSHQVTQMGQEVILRCVPISNHLYFYWYRQILGQKVEFLVSFYNNEISEKSEIFDDQFSVERPDGSNFTLKIRSTKLEDSAMYFCASREDGYEQYFGPGTRLTVT",recognises
11,"nwTCR-2583 (TCR, V domains shown) Valpha: GQSLEQPSEVTAVEGAIVQINCTYQTSGFYGLSWYQQHDGGAPTFLSYNALDGLEETGRFSSFLSRSDSYGYLLLQELQMKDSASYFCALGTEDKIIFGKGTRLHILP Vbeta: EAQVTQNPRYLITVTGKKLTVTCSQNMNHEYMSWYRQDPGLGLRQIYYSMNVEVTDKGDVPEGYKVSRKEKRNFPLILESPSPNQTSLYFCASRISLGANYGYTFGSGTRLTVV",recognises
12,"nwTCR-3173 (TCR, V domains shown) Valpha: SQQGEEDPQALSIQEGENATMNCSYKTSINNLQWYRQNSGRGLVHLILIRSNEREKHSGRLRVTLDTSKKSSSLLITASRAADTASYFCATYANDYKLSFGAGTTVTVRA Vbeta: EAQVTQNPRYLITVTGKKLTVTCSQNMNHEYMSWYRQDPGLGLRQIYYSMNVEVTDKGDVPEGYKVSRKEKRNFPLILESPSPNQTSLYFCASSAGTGGFVGYTFGSGTRLTVV",recognises
13,"nwTCR-2383 (TCR, V domains shown) Valpha: GIQVEQSPPDLILQEGANSTLRCNFSDSVNNLQWFHQNPWGQLINLFYIPSGTKQNGRLSATTVATERYSLLYISSSQTTDSGVYFCAVMPSGTYKYIFGTGTRLKVLA Vbeta: EAQVTQNPRYLITVTGKKLTVTCSQNMNHEYMSWYRQDPGLGLRQIYYSMNVEVTDKGDVPEGYKVSRKEKRNFPLILESPSPNQTSLYFCASSPSSGYNEQFFGPGTRLTVL",recognises
14,"nwTCR-2970 (TCR, V domains shown) Valpha: QQPVQSPQAVILREGEDAVINCSSSKALYSVHWYRQKHGEAPVFLMILLKGGEQKGHDKISASFNEKKQQSSLYLTASQLSYSGTYFCGTEFRNDYKLSFGAGTTVTVRA Vbeta: EAQVTQNPRYLITVTGKKLTVTCSQNMNHEYMSWYRQDPGLGLRQIYYSMNVEVTDKGDVPEGYKVSRKEKRNFPLILESPSPNQTSLYFCASSPGTGGYGYTFGSGTRLTVV",recognises
15,"nwTCR-2720 (TCR, V domains shown) Valpha: SQQGEEDPQALSIQEGENATMNCSYKTSINNLQWYRQNSGRGLVHLILIRSNEREKHSGRLRVTLDTSKKSSSLLITASRAADTASYFCATDLSGAGSYQLTFGKGTKLSVIP Vbeta: EAQVTQNPRYLITVTGKKLTVTCSQNMNHEYMSWYRQDPGLGLRQIYYSMNVEVTDKGDVPEGYKVSRKEKRNFPLILESPSPNQTSLYFCASSLGTGFGELFFGEGSRLTVL",recognises
16,"nwTCR-3095 (TCR, V domains shown) Valpha: DQQVKQNSPSLSVQEGRISILNCDYTNSMFDYFLWYKKYPAEGPTFLISISSIKDKNEDGRFTVFLNKSAKHLSLHIVPSQPGDSAVYFCAAFASDSNYQLIWGAGTKLIIKP Vbeta: DTAVSQTPKYLVTQMGNDKSIKCEQNLGHDTMYWYKQDSKKFLKIMFSYNNKELIINETVPNRFSPKSPDKAHLNLHINSLELGDSAVYFCASSPWTSGGNGELFFGEGSRLTVL",recognises
17,"nwTCR-2285 (TCR, V domains shown) Valpha: KNEVEQSPQNLTAQEGEFITINCSYSVGISALHWLQQHPGGGIVSLFMLSSGKKKHGRLIATINIQEKHSSLHITASHPRDSAVYICALNSDSNYQLIWGAGTKLIIKP Vbeta: EAQVTQNPRYLITVTGKKLTVTCSQNMNHEYMSWYRQDPGLGLRQIYYSMNVEVTDKGDVPEGYKVSRKEKRNFPLILESPSPNQTSLYFCATSPGTLYEQYFGPGTRLTVT",recognises
18,"nwTCR-2719 (TCR, V domains shown) Valpha: GIQVEQSPPDLILQEGANSTLRCNFSDSVNNLQWFHQNPWGQLINLFYIPSGTKQNGRLSATTVATERYSLLYISSSQTTDSGVYFCAVLAPGTYKYIFGTGTRLKVLA Vbeta: EAQVTQNPRYLITVTGKKLTVTCSQNMNHEYMSWYRQDPGLGLRQIYYSMNVEVTDKGDVPEGYKVSRKEKRNFPLILESPSPNQTSLYFCASSWGSGYEQYFGPGTRLTVT",recognises
19,"nwTCR-2793 (TCR, V domains shown) Valpha: QKEVEQNSGPLSVPEGAIASLNCTYSDRVSQSFFWYRQYSGKSPELIMSIYSNGDKEDGRFTAQLNKASQYVSLLIRDSQPSDSATYLCAVVSSNDYKLSFGAGTTVTVRA Vbeta: EAQVTQNPRYLITVTGKKLTVTCSQNMNHEYMSWYRQDPGLGLRQIYYSMNVEVTDKGDVPEGYKVSRKEKRNFPLILESPSPNQTSLYFCASSPGTIGELFFGEGSRLTVL",recognises
20,"nwTCR-3125 (TCR, V domains shown) Valpha: QKEVEQNSGPLSVPEGAIASLNCTYSDRVSQSFFWYRQYSGKSPELIMSIYSNGDKEDGRFTAQLNKASQYVSLLIRDSQPSDSATYLCALVSGTYKYIFGTGTRLKVLA Vbeta: DTAVSQTPKYLVTQMGNDKSIKCEQNLGHDTMYWYKQDSKKFLKIMFSYNNKELIINETVPNRFSPKSPDKAHLNLHINSLELGDSAVYFCASSPGLAYEQYFGPGTRLTVT",recognises
21,"nwTCR-2523 (TCR, V domains shown) Valpha: RKEVEQDPGPFNVPEGATVAFNCTYSNSASQSFFWYRQDCRKEPKLLMSVYSSGNEDGRFTAQLNRASQYISLLIRDSKLSDSATYLCVVNRGSQGNLIFGKGTKLSVKP Vbeta: DAGVTQSPTHLIKTRGQQVTLRCSPKSGHDTVSWYQQALGQGPQFIFQYYEEEERQRGNFPDRFSGHQFPNYSSELNVNALLLGDSALYLCASSLVDYEQYFGPGTRLTVT",recognises
22,"nwTCR-2555 (TCR, V domains shown) Valpha: AQSVSQHNHHVILSEAASLELGCNYSYGGTVNLFWYVQYPGQHLQLLLKYFSGDPLVKGIKGFEAEFIKSKFSFNLRKPSVQWSDTAEYFCAVKMDSSYKLIFGSGTRLLVRP Vbeta: DGGITQSPKYLFRKEGQNVTLSCEQNLNHDAMYWYRQDPGQGLRLIYYSQIVNDFQKGDIAEGYSVSREKKESFPLTVTSAQKNPTAFYLCASLGLNYNEQFFGPGTRLTVL",recognises
